Source: paper PMC7969954, “Pol α-primase dependent nuclear localization of the mammalian CST complex” (Communications Biology, 2021)

Target: T1, STN1-TEN1 complex (human, UniProt Q9H668 1-368; Q86WV5 1-123)
T1 construct: STN1, human, full length (flSTN1); TEN1, human, full length (flTEN1); source: E. coli ScarabXpress T7 lac, co-lysed, purified as a complex (Ni-NTA, amylose, HS and HQ)
T1 sequence (looked up) 1: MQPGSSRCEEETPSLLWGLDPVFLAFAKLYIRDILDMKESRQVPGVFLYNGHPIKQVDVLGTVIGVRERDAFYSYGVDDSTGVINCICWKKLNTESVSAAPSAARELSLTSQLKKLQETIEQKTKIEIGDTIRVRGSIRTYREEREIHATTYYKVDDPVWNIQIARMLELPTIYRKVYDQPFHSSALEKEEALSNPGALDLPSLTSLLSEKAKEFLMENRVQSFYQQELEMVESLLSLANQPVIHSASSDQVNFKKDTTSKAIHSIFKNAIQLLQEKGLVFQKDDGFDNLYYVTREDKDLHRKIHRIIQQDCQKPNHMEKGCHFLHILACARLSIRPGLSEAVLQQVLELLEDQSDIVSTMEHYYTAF
T1 sequence (looked up) 2: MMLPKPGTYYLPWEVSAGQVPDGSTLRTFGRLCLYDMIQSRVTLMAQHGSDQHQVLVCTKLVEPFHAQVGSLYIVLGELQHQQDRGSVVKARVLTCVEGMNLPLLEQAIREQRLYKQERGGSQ
Test: pull-down; purified STN1-TEN1 complex incubated with purified CTC1 (1002-end) at 4 °C; complex bound to an amylose column and analysed by SDS-PAGE
Settings: both partners purified

binding result: binds
B1: CTC1 (1002-end) (domain or fragment, human, UniProt Q2NKJ3 1002-1217, looked up)
chain: TISIPLPHIYLAELLQGGQSPFQATASCHIVSVFSLQLFWVCAYCTSICRQGKCTRLGSTCPTQTAISQAIIRLLVEDGTAEAVVTCRNHHVAAALGLCPREWASLLDFVQVPGRVVLQFAGPGAQLESSARVDEPMTMFLWTLCTSPSVLRPIVLSFELERKPSKIVPLEPPRLQRFQCGELPFLTHVNPRLRLSCLSIRESEYSSSLGILASSC
notes: CTC1, human, residues 1002-end; also called CTC1 residues 1002-end; source: E. coli ScarabXpress T7 lac, purified (Ni-NTA, HS and HQ)
